Data reported in patent US20080161234A1, “Composition Comprising Lactic Acid and Lactoferrin” (priority 2004, published 2008).

How the values were obtained:
Format in all cases: cell-based
[1] = test system: P. bivia strains (Pb 57, Pb 62); experiment: Growth inhibition of P. bivia by LF, spectrophotometric, 20 h anaerobic; settings: LF in various concentrations, no lactate, 0.34% BHI
Protocol: The bacteria were incubated in 0.34% BHI under anaerobic conditions for 20 hours.
(§1) G. vaginalis and P. bivia were cultured on chocolate-GL-plates for 48 h in anaerobic milieu. The bacteria were harvested and suspended in BHI for further incubation (4 hours at 37° C.). The bacteria were washed twice in Bactopeptone (BP, 0.2%). The concentration was adjusted spectrophotometrically and diluted to 1×10^7 bacteria per ml.
(§2) The procedure for the microbicidal assay with regard to G. vaginalis and P. bivia was as described above except that the microplate was incubated under anaerobic conditions (2 h). Thereafter droplets of the solutions were analyzed for viable bacteria on blood agar plates after 48 h of anaerobic incubation at 37° C.
The microbicidal assay was modified in order to obtain survival conditions for G. vaginalis and P. bivia. Instead of 0.2% BP 0.34% BHI was used. The bacterial strains were analyzed with only LF added in various concentrations to the wells (no lactate present). The plate was incubated for 20 hours.

[2] = test system: E. coli 06; experiment: Microbicidal microplate-droplet assay, E. coli; parameters: key to E. coli killing, growth grade in droplet assay: +++ means that the number of colony forming units (CFU) contained within 5 ul of a droplet formed a smooth layer of bacteria; ++ means that a “ruffled” area is seen; 0 means that no CFU were found in triplicate samples of 5 ul (>99.95 killed of the inoculum)
Protocol: (§3) The bacterial strains S. aureus 1800 (CCUG 1800), E. coli 06, and the yeast C. albicans (ATCC 64549) have been used in the microplate assay. All microorganisms were cultured in brain heart infusion medium (BHI) on a shaker over night at 37° C. A volume of the culture was transferred to a new tube with BHI and incubated for two more h on the shaker. The bacteria were harvested in the log phase, washed once and thereafter suspended in the broth used for the microplate assay. The suspension was adjusted spectrophotometrically and diluted to a concentration of approximately 4×10^6 cells per ml at 650 nm. Washed cells were suspended in 0.2% BP (pH 7.0) or BHI medium diluted 1/10 (0.34%, pH 6.7-6.9) (Difco, USA). The concentration of bacterial or fungal cells was spectrophotometrically adjusted. LF or peptide, serially diluted in BHIdil or BP by twofold steps (unless otherwise stated), were added in triplicate to the wells of a microtiterplate (200 ul per well). The bacterial or yeast cell solutions were added in 10 ul volumes to give a final concentration of approximately 2×10^5 cells per ml. The concentration of the stock solution was always checked by viable counts. The microplate was incubated at 37° C. in a humid chamber for 2 h unless otherwise stated. Five ul were taken from each well and added as a drop onto a blood agar plate and incubated over night at 37° C. In some experiments more thorough viable counts were performed and the killing was expressed as remaining colony forming units in relation to the inoculum. The lower limit for detection of microorganisms was 200 CFU/ml. The antimicrobial activity of human LF was analysed by the microbicidal assay described above. Different microbes such as C. albicans, E. coli and S. aureus were analysed with respect to their survival in lactate (not containing the inert gel base, which makes the gel unsuitable for the microbicidal assay) containing LF.

[3] = test system: S. aureus 1800 (CCUG 1800); experiment: Microbicidal microplate-droplet assay, S. aureus; parameters: key to S. aureus killing, growth grade in droplet assay: +++ = the number of colony forming units contained within 5 ul of a droplet formed a smooth layer of bacteria.; (+++): (parenthesis = a tendency towards a ruffled area compared with the control).; 0 = no bacteria in triplicate samples of 5 ul (>99.95 killed of the inoculum)
Protocol: as §3

[4] = test system: G. vaginalis; experiment: Minimal bactericidal concentration (MBC99) of LF on G. vaginalis strains; settings: concentration at which 99% killing was obtained, fivefold serial steps
Protocol: as §1, §2
Instead of 0.2% BP 0.34% BHI was used. […] The plate was incubated for 20 hours.

[5] = HLF 500 ug/ml, lactate 0.2%, 2 h incubation
[6] = HLF 500 ug/ml, lactate 0.2%, 5 h incubation
[7] = HLF 500 ug/ml, lactate 1%, 2 h incubation
[8] = HLF 500 ug/ml, lactate 1%, 5 h incubation
[9] = HLF 500 ug/ml, lactate 5%, 2 h incubation
[10] = HLF 500 ug/ml, lactate 5%, 5 h incubation
[11] = HLF 500 ug/ml, no lactal, 2 h incubation
[12] = HLF 500 ug/ml, no lactal, 5 h incubation

B1: LF: LF from human milk purchased from Sigma; single chain iron-binding glycoprotein (protein, UniProt P02788 20-710, looked up)
Lactotransferrin: GRRRSVQWCAVSQPEATKCFQWQRNMRKVRGPPVSCIKRDSPIQCIQAIAENRADAVTLDGGFIYEAGLAPYKLRPVAAEVYGTERQPRTHYYAVAVVKKGGSFQLNELQGLKSCHTGLRRTAGWNVPIGTLRPFLNWTGPPEPIEAAVARFFSASCVPGADKGQFPNLCRLCAGTGENKCAFSSQEPYFSYSGAFKCLRDGAGDVAFIRESTVFEDLSDEAERDEYELLCPDNTRKPVDKFKDCHLARVPSHAVVARSVNGKEDAIWNLLRQAQEKFGKDKSPKFQLFGSPSGQKDLLFKDSAIGFSRVPPRIDSGLYLGSGYFTAIQNLRKSEEEVAARRARVVWCAVGEQELRKCNQWSGLSEGSVTCSSASTTEDCIALVLKGEADAMSLDGGYVYTAGKCGLVPVLAENYKSQQSSDPDPNCVDRPVEGYLAVAVVRRSDTSLTWNSVKGKKSCHTAVDRTAGWNIPMGLLFNQTGSCKFDEYFSQSCAPGSDPRSNLCALCIGDEQGENKCVPNSNERYYGYTGAFRCLAENAGDVAFVKDVTVLQNTDGNNNEAWAKDLKLADFALLCLDGKRKPVTEARSCHLAMAPNHAVVSRMDKVERLKQVLLHQQAKFGRNGSDCPDKFCLFQSETKNLLFNDNTECLARLHGKTTYEKYLGPQYVAGITNLKKCSTSPLLEACEFLRK
For B1, the “growth inhibition of P. bivia” value [1] was “Growth inhibition”, the “E. coli killing, growth grade in droplet assay” value (“E. coli killing, growth grade” for short) [2, 5] was “++” and the “E. coli killing, percentage of bacteria remaining in relation to the inoculum” value [2, 6] was 4%. The “E. coli killing, growth grade” value [2, 7] was “++”, the “E. coli killing, percentage of bacteria remaining in relation to the inoculum” value [2, 8] was 5% and the “E. coli killing, percentage of bacteria remaining in relation to the inoculum” value [2, 9] was 0 (0 means that no CFU were found in triplicate samples of 5 ul (>99.95 killed of the inoculum)). For the same molecule, the “E. coli killing, percentage of bacteria remaining in relation to the inoculum” value [2, 10] was 0 (0 means that no CFU were found in triplicate samples of 5 ul (>99.95 killed of the inoculum)), the “E. coli killing, growth grade” value [2, 11] was “+++” and the “E. coli killing, growth grade” value [2, 12] was “+++”. The “E. coli killing, percentage of bacteria remaining in relation to the inoculum” value ([2]; HLF 2000 ug/ml, lactate 0.2%, 5 h incubation) was 5%, the “E. coli killing, percentage of bacteria remaining in relation to the inoculum” value ([2]; HLF 2000 ug/ml, lactate 1%, 5 h incubation) was 9% and the “E. coli killing, percentage of bacteria remaining in relation to the inoculum” value ([2]; HLF 2000 ug/ml, lactate 5%, 2 h incubation) was 0 (0 means that no CFU were found in triplicate samples of 5 ul (>99.95 killed of the inoculum)). The “E. coli killing, percentage of bacteria remaining in relation to the inoculum” value ([2]; HLF 2000 ug/ml, lactate 5%, 5 h incubation) was 0 (0 means that no CFU were found in triplicate samples of 5 ul (>99.95 killed of the inoculum)), the “E. coli killing, growth grade” value ([2]; HLF 2000 ug/ml, no lactal, 2 h incubation) was “++” and the “E. coli killing, percentage of bacteria remaining in relation to the inoculum” value ([2]; HLF 2000 ug/ml, no lactal, 5 h incubation) was 3%. The “E. coli killing, growth grade” value ([2]; HLF 5000 ug/ml, lactate 0.2%, 2 h incubation) was “++”, the “E. coli killing, percentage of bacteria remaining in relation to the inoculum” value ([2]; HLF 5000 ug/ml, lactate 0.2%, 5 h incubation) was 0.4% and the “E. coli killing, percentage of bacteria remaining in relation to the inoculum” value ([2]; HLF 5000 ug/ml, lactate 1%, 5 h incubation) was 16%. The “E. coli killing, percentage of bacteria remaining in relation to the inoculum” value ([2]; HLF 5000 ug/ml, lactate 5%, 2 h incubation) was 0 (0 means that no CFU were found in triplicate samples of 5 ul (>99.95 killed of the inoculum)), the “E. coli killing, percentage of bacteria remaining in relation to the inoculum” value ([2]; HLF 5000 ug/ml, lactate 5%, 5 h incubation) was 0 (0 means that no CFU were found in triplicate samples of 5 ul (>99.95 killed of the inoculum)) and the “E. coli killing, growth grade” value ([2]; HLF 5000 ug/ml, no lactal, 2 h incubation) was “++”. The “E. coli killing, percentage of bacteria remaining in relation to the inoculum” value ([2]; HLF 5000 ug/ml, no lactal, 5 h incubation) was 2%, the “S. aureus killing, percentage of bacteria remaining in relation to the inoculum” value [3, 5] was 0 (0 = no bacteria in triplicate samples of 5 ul (>99.95 killed of the inoculum).) and the “S. aureus killing, percentage of bacteria remaining in relation to the inoculum” value [3, 6] was 0 (0 = no bacteria in triplicate samples of 5 ul (>99.95 killed of the inoculum).). For the same molecule, the “S. aureus killing, percentage of bacteria remaining in relation to the inoculum” value [3, 7] was 0 (0 = no bacteria in triplicate samples of 5 ul (>99.95 killed of the inoculum).), the “S. aureus killing, percentage of bacteria remaining in relation to the inoculum” value [3, 8] was 0 (0 = no bacteria in triplicate samples of 5 ul (>99.95 killed of the inoculum).) and the “S. aureus killing, percentage of bacteria remaining in relation to the inoculum” value [3, 9] was 0 (0 = no bacteria in triplicate samples of 5 ul (>99.95 killed of the inoculum).). The “S. aureus killing, percentage of bacteria remaining in relation to the inoculum” value [3, 10] was 0 (0 = no bacteria in triplicate samples of 5 ul (>99.95 killed of the inoculum).), the “S. aureus killing, growth grade in droplet assay” value [3, 11] was “(+++)” and the “S. aureus killing, percentage of bacteria remaining in relation to the inoculum” value [3, 12] was 0.3%. For the same molecule, the “microbicidal activity against S. aureus, LF compared with rHLF” value ([3]; without lactate, 0.25 and 0.125 mg/ml, 2 h of incubation) was “somewhat more active”, the MBC99 ([4]; G. vaginalis strain code 12) was 500 µg/mL and the MBC99 ([4]; G. vaginalis strain code 17) was over 2500 µg/mL. It also gave an MBC99 ([4]; G. vaginalis strain code 23) of 1000 µg/mL, an MBC99 ([4]; G. vaginalis strain code 51) of 100 µg/mL and an MBC99 ([4]; G. vaginalis strain code 90) of 4 µg/mL. For the same molecule, the MBC99 ([4]; G. vaginalis strain code 96) was 100 to 500 µg/mL.
